Here are results for four molecules from US20230220439A1 (HUBEL UNIVERSITY, published 2023).

Common to all, as to assay: Native-PAGE of mixed CL and Im proteins, 30 min at room temperature
One test deals with T1, Im7 protein (Escherichia coli, UniProt Q03708 1-87).
T1 construct: Expressed from pET23a in E. coli BL21(DE3) and purified on nickel beads; a tag is not described
T1 sequence: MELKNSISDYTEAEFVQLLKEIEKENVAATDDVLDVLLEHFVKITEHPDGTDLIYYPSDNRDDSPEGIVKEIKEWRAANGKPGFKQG

Another test addresses T2, Im9 protein (Escherichia coli, UniProt P13479 1-86).
T2 construct: Expressed from pET23a in E. coli BL21(DE3) and purified on nickel beads; a tag is not described

The next test deals with T3, Im2 protein (Escherichia coli, UniProt P04482 1-86).
T3 construct: Expressed from pET23a in E. coli BL21(DE3) and purified on nickel beads; a tag is not described; also called immunity 2
T3 sequence: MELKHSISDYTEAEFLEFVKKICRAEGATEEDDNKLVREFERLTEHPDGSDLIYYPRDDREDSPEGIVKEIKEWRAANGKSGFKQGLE

Another test concerns the target T4, Im8 protein (Escherichia coli, UniProt P09881 1-85).
T4 construct: Expressed from pET23a in E. coli BL21(DE3) and purified on nickel beads; a tag is not described
T4 sequence: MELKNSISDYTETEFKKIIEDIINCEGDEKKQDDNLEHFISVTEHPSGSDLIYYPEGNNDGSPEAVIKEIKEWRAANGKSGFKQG

T2 sequence (P13479 whole entry): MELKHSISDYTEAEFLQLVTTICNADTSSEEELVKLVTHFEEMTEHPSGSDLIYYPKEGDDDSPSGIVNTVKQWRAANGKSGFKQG

B1: CL7 protein (other)
chain: MSKSNEPGKATGEGKPVNNKWLNNAGKDLGSPVPDRIANKLRDKEFESFDDFRETFWEEVSKDPELSKQFSRNNNDRMKVGKAPKTRTQDVSGKRTSFELNHQKPIEQNGGVYDMDNISVVTPKRNIDIEG
notes: Expressed from pET23a in E. coli BL21(DE3) and purified on nickel beads; a tag is not described
B1: the binding result with Im7 protein is reported as “binds”.

B2: CL9 protein (other)
chain: MSKSNEPGKATGEGKPVGDKWLDDAGKDSGAPIPDRIADKLRDKEFESFDDFRETVWEEVSKDPELSKNLNPSNKSSVSKGYSPFTPKNQQVGGRKVYELNHQKPIEQGGEVYDMDNIRVTTPKRNIDIEG
notes: as for B1
B2: the binding result with Im9 protein is given as “binds”.

B3: CL2 protein (other)
chain: MSKSNEPGKATGEGKPVGDKWLDDAGKDSGAPIPDRIADKLRDKEFENFDDFRETFWEEVSKDPDLSKQFKGSNKTNIQKGKAPFARKKDQVGGRERFELNHQKPIEQDGGVYDMNNIRVTTPKRNIDIEG
notes: as for B1
In the case of B3, the binding result in the test with Im2 protein is reported as “binds”.

B4: CL8 protein (other)
chain: MSKSNEPGKATGEGKPVGDKWLDDAGKDSGAPIPDRIADKLRDKEFENFDDFRETFWEEVSKDPELSKQFNPGNKKRLSQGLAPRARNKDTVGGRRSFELNHQKPIEQDGGVYDMDNLRITTPKRNIDIEG
notes: as for B1
In the case of B4, the binding result with Im8 protein is “binds”.
